Data on six molecules can be found in patent US20180362645A1 (Amgen, published 2018).

Experiment [1] addresses T1, human pituitary adenylate cyclase-activating polypeptide type I receptor (human, UniProt P41586 21-468).
T1 construct: whole, on cells; On SH-SY5Y or recombinant CHO cells (cAMP assay), as membranes of hPAC-1 AequoScreen CHO cells (radioligand assay) and on CHOK1/huPac1 whole cells (KinExA); also called human PAC1; hPAC1
T1 sequence (looked up): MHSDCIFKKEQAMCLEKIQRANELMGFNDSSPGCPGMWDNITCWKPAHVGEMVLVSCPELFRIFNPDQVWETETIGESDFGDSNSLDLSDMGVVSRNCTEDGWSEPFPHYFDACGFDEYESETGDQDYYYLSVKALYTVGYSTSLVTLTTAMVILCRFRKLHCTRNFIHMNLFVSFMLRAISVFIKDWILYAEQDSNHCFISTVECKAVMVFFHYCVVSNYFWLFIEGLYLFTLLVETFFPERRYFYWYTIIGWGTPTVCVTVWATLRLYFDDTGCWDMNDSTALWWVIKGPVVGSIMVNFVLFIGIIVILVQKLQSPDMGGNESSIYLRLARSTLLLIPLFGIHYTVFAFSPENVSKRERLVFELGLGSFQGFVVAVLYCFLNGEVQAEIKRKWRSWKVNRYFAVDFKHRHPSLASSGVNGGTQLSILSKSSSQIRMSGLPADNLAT
Nature of the experiment: radioligand competition, hPAC1 CHO membranes; competitor 125I-29A. On the technique in general: Displacement assays read how much labelled ligand stays bound in the presence of the test substance.
Method: (§1) The plates were incubated at room temperature for 2 hours with shaking at 60 rpm, and then the contents of each well were filtered over 0.5% polyethyleneimine (PEI)-treated (for at least two hours) GF/C 96-well filter plates. The GF/C filter plates were washed five times with ice-cold 50 mM Tris, pH 7.5 and dried in an oven at 55° C. for 1 hour. The bottoms of the GF/C plates were then sealed. 40 μl Microscint™ 20 was added to each well, the tops of the GF/C plates were sealed with TopSeal™-A (a press-on adhesive sealing film), and the GF/C plates were counted with TopCount NXT (Packard). The data were analyzed using Prizm (GraphPad Software Inc.)

Experiment [2] concerns the target T1, human pituitary adenylate …. Nature of the experiment: KinExA, CHOK1/huPac1 whole cells.
Method: Binding of anti-Pac1 antibody with CHOK1/huPac1 cells were tested on KinExA. […] Samples containing anti-Pac1 antibody and whole cells were incubated with rotation at room temperature for 4 hours before 5-minute 220-g centrifugation at 4° C. to separate the whole cells and anti-Pac1 antibody-cell complexes from unbound anti-Pac1 antibody. The supernatants containing free anti-Pac1 antibody were filtered through 0.22 μm filter before loading to the goat-anti-huFc-coated beads on KinExA. […] The binding signal is proportional to the concentration of free anti-Pac1 antibody in solution at each cell density. Equilibrium dissociation constant (KD) was estimated by n-curve analysis in KinExA™ Pro software (Sapidyne Instruments, Inc., Boise, Id.).
Experiment [3] shares this target. Nature of the experiment: radioligand competition, hPAC1 CHO membranes; competitor 125I-28A.
Method: as §1
Experiment [4] shares this target. Nature of the experiment: radioligand competition, hPAC1 CHO membranes; competitor 125I-26A.
Method: as §1
The target is the same in experiment [5]. Nature of the experiment: radioligand competition, hPAC1 CHO membranes; competitor 125I-39A.
Method: as §1
Experiment [6] has the same target. Nature of the experiment: radioligand competition, hPAC1 CHO membranes; competitor 125I-14A.
Method: as §1
The target in experiment [7] is T2, human VPAC2 (human, UniProt P41587 24-438).
T2 sequence (looked up): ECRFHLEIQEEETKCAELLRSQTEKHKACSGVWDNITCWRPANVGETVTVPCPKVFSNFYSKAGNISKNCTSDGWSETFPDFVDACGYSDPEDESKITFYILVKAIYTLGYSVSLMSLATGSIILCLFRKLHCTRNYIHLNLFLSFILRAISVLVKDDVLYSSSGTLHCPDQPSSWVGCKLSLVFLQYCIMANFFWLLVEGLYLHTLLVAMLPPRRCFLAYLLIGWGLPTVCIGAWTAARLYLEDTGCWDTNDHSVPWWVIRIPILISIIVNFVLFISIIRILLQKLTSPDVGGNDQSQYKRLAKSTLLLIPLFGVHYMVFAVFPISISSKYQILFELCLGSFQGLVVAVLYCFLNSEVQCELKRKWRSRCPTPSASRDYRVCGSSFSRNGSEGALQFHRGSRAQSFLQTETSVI
Nature of the experiment: cell-based or functional assay.

In experiment [8] the target is cyno PAC1 (cynomolgus). Nature of the experiment: cell-based or functional assay.
Experiment [9] deals with T3, human VPAC1 (human, UniProt P32241 31-457).
T3 sequence (looked up): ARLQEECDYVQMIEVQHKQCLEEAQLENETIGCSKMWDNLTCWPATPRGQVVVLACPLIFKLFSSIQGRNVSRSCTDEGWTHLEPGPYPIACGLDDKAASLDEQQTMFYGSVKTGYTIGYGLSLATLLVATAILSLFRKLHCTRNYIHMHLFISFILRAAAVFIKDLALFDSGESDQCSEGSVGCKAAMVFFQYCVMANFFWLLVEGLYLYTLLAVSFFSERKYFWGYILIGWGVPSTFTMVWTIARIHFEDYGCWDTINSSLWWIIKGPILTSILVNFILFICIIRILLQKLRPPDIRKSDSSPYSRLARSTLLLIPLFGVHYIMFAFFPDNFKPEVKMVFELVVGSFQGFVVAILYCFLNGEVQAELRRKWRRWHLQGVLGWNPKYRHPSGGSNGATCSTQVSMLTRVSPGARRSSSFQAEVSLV
Nature of the experiment: cell-based or functional assay.

B1: 03A (antibody, human IgG2, kappa, V domains shown)
VH: QVQLVESGGGVVQPGRSLRLSCAASGFTFSYYAIHWVRQAPGKGLEWVAVISYDGSNKYYADSVKGRFTISRDNSKNTLYLQMNSLRAEDTAVYYCARGYDLLTGYPDYWGQGTLVTVSS
VL: DIQLTQSPSFLSASVGDRVTITCRASQSIGRSLHWYQQKPGKAPKLLIKYASQSLSGVPSRFSGSGSGTEFTLTISSLQPEDFATYYCHQSSRLPFTFGPGTKVDIKR
notes: also called LC-03 and HC-03
In the case of B1, the Ki (commonly a dissociation constant, usually derived from enzyme kinetics or from competition with a known ligand) in experiment [1] turned out to be 0.14 nM; in experiment [3], 0.01 nM. The Kd (in general, the free concentration of one partner at which half of the binding sites on the other are occupied at equilibrium, for simple one-to-one binding) in experiment [2] came to 0.126 nM.

B2: 28A (antibody, human IgG2, kappa, V domains shown)
VH: QVQLVESGGGVVQPGRSLRLSCAASGFTFSRYAMHWVRQASGKGLEWVAVISYDGSNKYYADSVKGRFTISRDNSKNTLYLLMSSLRAEDTAVFYCARGYDILTGYPDYWGQGTLVTVSS
VL: EIVLTQSPDFQSVTPKEKVTITCRASQSIGRSLHWYQQKPDQSPKLLFKYASQSLSGVPSRFSGSGSGTDFTLTINSLEAEDAATYYCHQSSRLPFTFGPGTKVDIKR
notes: also called LC-10 and HC-39
For B2, the Ki in [1] was 0.04 nM; in experiment [3] it was below 0.01 nM.

B3: 05A (antibody, human IgG2, kappa, V domains shown)
VH: QVQLVESGGGVVQPGRSLRLSCAASGFTFSRFAMHWVRRAPGKGLEWVAVISYDGGNKYYAESVKGRFTISRDNSKNTLNLLMNSLRAEDTALFYCARGYDVLTGYPDYWGQGTLVTVSS
VL: DIQLTQSPSFLSASVGDRVTITCRASQSIGRSLHWYQQKPGKAPKLLIKYASQSLSGVPSRFSGSGSGTEFTLTISSLQPEDFATYYCHQSSRLPFTFGPGTKVDIKR
notes: also called LC-05 and HC-06
As to B3, the figures for the Ki in experiment [1] and in experiment [3] were 0.03 nM and 0.02 nM, respectively.

B4: 38A (antibody, human IgG2, kappa, V domains shown)
VH: QVQLQESGPGLVKPSQTLSLTCTVSGGSISRGGYYWSWIRQHPGKGLEWIGYIYYSGNTYYNPSLKSRVIISGDTSKNQLSLKLRSVTAADTAVYYCARGGAARGMDVWGQGTTVTVSS
VL: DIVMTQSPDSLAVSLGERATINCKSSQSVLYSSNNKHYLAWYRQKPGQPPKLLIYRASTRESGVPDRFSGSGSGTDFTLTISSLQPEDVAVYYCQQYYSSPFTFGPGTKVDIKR
notes: also called LC-18 and HC-50
Regarding B4, the figures for the Ki in [4], in experiment [5] and in experiment [6] were 0.07 nM, 0.11 nM and 0.07 nM, respectively. In addition, binding in experiment [2] was put at a Kd of 0.016 nM.

B5: 14B (antibody, human IgG1, kappa, N297G)
heavy: not shown
light: EIVLTQSPATLSLSPGERATLSCRASQSVGRSLHWYQQKPGQAPRLLIKYASQSLSGIPARFSGSGSGTDFTLTISSLEPEDFAVYYCHQSSRLPFTFGPGTKVDIKRTVAAPSVFIFPPSDEQLKSGTASVVCLLNNFYPREAKVQWKVDNALQSGNSQESVTEQDSKDSTYSLSSTLTLSKADYEKHKVYACEVTHQGLSSPVTKSFNRGEC
In the case of B5, in experiment [7], the “hVPAC2 IC50 (cAMP assay)” value was above 10000 nM. The “cyno PAC1 IC50 (cAMP assay)” value in experiment [8] was determined as 0.6 nM. Moreover, the “hVPAC1 IC50 (cAMP assay)” value in experiment [9] was above 10000 nM.

B6: 26B (antibody, human IgG1, kappa, N297G)
heavy: not shown
light: DIQLTQSPSFLSASVGDRVTITCRASQSIGRSLHWYQQKPGKAPKLLIKYASQSLSGVPSRFSGSGSGTEFTLTISSLQPEDFATYYCHQSSRLPFTFGPGTKVDIKRTVAAPSVFIFPPSDEQLKSGTASVVCLLNNFYPREAKVQWKVDNALQSGNSQESVTEQDSKDSTYSLSSTLTLSKADYEKHKVYACEVTHQGLSSPVTKSFNRGEC
Consider B6, for which, in experiment [7], the “hVPAC2 IC50 (cAMP assay)” value was above 10000 nM. In addition, the “cyno PAC1 IC50 (cAMP assay)” value in [8] came to 1.3 nM. In experiment [9], the “hVPAC1 IC50 (cAMP assay)” value is above 10000 nM.
